# Experimental data published in US12331106B2, “Anti-angiopoietin-2 antibodies that induce Tie2 activation” (Institute for Basic Science, priority 2018, dated 2025).
# B1: 2C8H11: humanized anti-Ang2 human IgG1 antibody from mouse 2C8; VH SEQ ID NO: 55, VL SEQ ID NO: 56 (antibody, V domains shown)
# VH: QVQLVQSGAEVKKPGASVKVSCKASGYTFTSYWMHWVRQAPGQGLEWMGMIDPSDSETRLNQKFKDRVTMTRDTSTSTVYMELSSLRSEDTAVYYCARRFYYGSDWYFDVWGQGTLVTVSS
# VL: DIQLTQSPSFLSASVGDRVTITCKASQDVGTAVAWYQQKPGKAPKLLIYWASTRHTGVPSRFSGSGSGTEFTLTISSLQPEDFATYYCQQYSSYPLTFGQGTKVEIK
# modifications: human IgG1 constant regions; VH; VL
# Experiments:
# Tie2 receptor = assay: Tie2 phosphorylation in HUVECs (immunoprecipitation/Western); format: cell-based, human; conditions: antibody 0.02-50 μg/ml with hAng2 1 μg/ml, 30 min
# Protocol: Ang2 binds to the Tie2 receptor and acts as a weak agonist or antagonist. The anti-Ang2 antibody developed in this invention binds to Ang2 to induce Ang2-antibody complexes, further causing clustering of Tie2 receptors and consequently enhancing activation of Tie2 receptor. Experiments were conducted to analyze the effect of anti-Ang2 antibody on Tie2 phosphorylation using HUVECs.
# Specifically, HUVECs (LONZA™) were cultured in EGM-2 (LONZA™) at 37° C. and 5% CO2 concentration in a 100 mm culture dish. At 80-90% confluency, the cells were changed to EBM-2 (LONZA™) medium for 2 hrs˜ 6 hrs for serum starvation. Humanized anti-Ang2 antibodies at various concentrations (0.02 μg/ml to 50 μg/ml) were mixed with hAng2 protein (1 μg/ml, R&D® Systems) for 30 min. Then, the mixtures were treated with the cultured cells and further incubated for 30 min. The cells were washed twice with cold PBS and then lysed in 1000 μl of lysis buffer (10 mM Tris-Cl pH 7.4, 150 mM NaCl, 5 mM EDTA, 10% glycerol, 1% TRITON™ X-100 (non-ionic polyoxyethylene surfactant), protease inhibitor, phosphatase inhibitor) and then lysed at 4° C. for 60 min. Cell extracts were prepared and centrifuged at 12,000 rpm for 10 min. The supernatant was quantitated by bicinchoninic (BCA) assay.
# To 0.5 mg of cell lysate, 1 μg of Tie2 antibody (R&D® Systems, AF313) was added and incubated overnight at 4° C. […]
# [1] = tested on: LLC (Lewis Lung Carcinoma) tumor; assay: Tumor growth inhibition in LLC subcutaneous model; format: in vivo, C57BL/6 mice; conditions: LLC s.c.; antibody 10 mg/kg i.p. every 2-3 days; Cpt 3 mg/kg i.p. once
# Protocol: 2C8H11 anti-Ang2 antibody was tested for its ability to inhibit tumor growth in LLC (Lewis Lung Carcinoma) cell line tumor model. Specifically, LLC cell line (ATCC) was cultured in DMEM (GIBCO™) supplemented with 10% FBS (GIBCO™). LLC cells (1×10^6 in 100 μl of PBS) were subcutaneously injected into 6˜8-week-old C57BL/6 mice (Jackson Laboratory) which were anesthetized with a mixture of Ketamine and Xylazine. When the volume of the tumors reached 50˜100 mm^3, the mice were intraperitoneally administered with 10 mg/kg of 2C8H11 antibody every 2˜3 days. Cisplatin (Cpt) was injected intraperitoneally once at a dose of 3 mg/kg in both monotherapy and combination therapy groups. The changes in tumor volume was tracked over the following days. Tumor volume (V) was measured using the formula: V=(width^2×length)/2 V=(width^2×length)/2
# The experiment was performed in 4 groups: Fc (control group), Fc+Cpt group, 2C8H11 group, and 2C8H11+Cpt group. […] Meanwhile, combined treatment with 2C8H11 and Cpt delayed tumor growth by 47% compared with Fc.
# HUVEC monolayer = assay: In vitro vascular permeability (leakage) assay, TNF-α induced, FITC-dextran; format: cell-based, human; conditions: HUVECs; pre-treatment antibody 1 μg/ml with Ang2 1 μg/ml 30 min; TNF-α 100 ng/ml 22 hr
# Protocol: Vascular leakage assay was carried out in HUVECs using In Vitro Vascular Permeability Assay Kit (Millipore®) according to the manufacturer's instruction. HUVECs were seeded into the insert of the transwell plate and cultured for 3 days for 100% confluence. The HUVECs were pre-incubated with Ang2 (1 μg/ml), Ang2 (1 μg/ml) together with Control, 2C8H11 or 4B9H11 antibody (1 μg/ml) for 30 min, and then TNF-α (100 ng/ml) was added, and the cells were incubated at 37° C. for 22 hr. FITC-dextran was added to the upper chamber and incubated for 20 min. Passage of FITC-dextran though the HUVEC monolayer was measured by a fluorescence reader at excitation and emission wavelengths of 485 and 535 nm, respectively.
# [2] = tested on: Tie2 receptor clustering / FOXO1 translocation in HUVECs; assay: Tie2 clustering and FOXO1 translocation in HUVECs (immunofluorescence); format: cell-based, human
# Protocol: Tie2 clustering at cell-cell junction area and FOXO1 translocation from nucleus to cytosol by anti-Ang2 antibodies were examined in HUVECs by immunofluorescence. Specifically, HUVECs were seeded on 8 well slide chamber (Lab-Tek™ II) and maintained in EGM-2 medium for 2-3 days. At 100% confluence, the cells were serum starved with EBM-2 medium for 4 hrs and then treated with 1 μg/ml anti-Ang2 antibodies together with 1 μg/ml of hAng2 for 30 min. Thereafter, the cells were fixed with 4% formaldehyde in PBS at room temperature (RT) for 10 min, permeabilized with 0.1% TRITON™ X-100 (non-ionic polyoxyethylene surfactant) in PBS, blocked with 1% BSA in PBS at RT for 60 min, and incubated with primary antibodies at RT for 1 hr. The primary antibodies for hTie2, FOXO1, and Human Fc were used. The cells were then incubated with secondary antibodies (Invitrogen) in the dark at RT for 1 hr and mounted with VECTASHIELD® mounting medium with DAPI (Vector Labs, antifade mounting media optimized for immunofluorescence applications). Images were taken with a laser scanning confocal microscope (LSM880, Carl Zeiss).
# 2C8H11-induced Tie2 clustering and FOXO1 translocation was examined in a time-course study (from 10 min to 240 min). […] 6-4: Inhibition of Vascular Permeability by Humanized Anti-Ang2 Antibodies
molecule,measurement,setting,value
B1,phosphorylation of Tie2,Tie2 receptor,strongly induced in a dose-dependent manner
same,tumor growth inhibition compared with Fc,[1],29%
same,vascular leakage induced by TNF-α (passage of FITC-dextran),HUVEC monolayer,significantly inhibited
same,co-localization of antibody with Tie2 receptor,"[2]; HUVECs, 30 min, anti-human Fc staining",co-localized with clustered Tie2 receptor at cell-cell contact and endocytosed Tie2 receptor in cytosol
same,Tie2 translocation/clustering to cell-cell contact,"[2]; HUVECs, 30 min, antibodies 1 μg/ml with hAng2 1 μg/ml",induced Tie2 translocation/clustering to cell-cell contact
same,FOXO1 translocation from nucleus to cytosol,"[2]; HUVECs, 30 min, compared to serum-starved control",markedly disappeared in nucleus
same,Tie2 receptor / Tie2 clustering at cell-cell contact at late time points,"[2]; time-course, with hAng2, 120 min and 240 min",sustained even after 240 min treatment
same,co-localized antibody with Tie2 at cell-cell contact,"[2]; time-course, with hAng2, up to 240 min",maintained until 240 min
